The record followed here is publication PMC5384775.

The target in assay [1] is filamentous actin (F-actin) (UniProt P68135). In words: co-sedimentation; His-tagged vinculin or mutants (1 uM) with 4 uM pre-polymerized F-actin and 10 uM GST-VBS(IpaA 610-633) as activator; 50 mM Tris-HCl pH 8.0, 0.2 mM MgCl2, 0.2 mM ATP, 1 mM DTT; 1 h at 24 C; 150,000 x g 1 h at 4 C; SDS-PAGE, CBB staining, ratio of precipitated to total vinculin by ImageJ.
Assay [2] has the same target. Description: co-sedimentation; His-tagged vinculin or mutants (2 uM; WT also at 0.25 uM with 10 or 25 uM peptide) with 4 uM pre-polymerized F-actin and 25 uM VBS3(talin) peptide as activator; 50 mM Tris-HCl pH 8.0, 0.2 mM MgCl2, 0.2 mM ATP, 1 mM DTT; 1 h at 24 C; 150,000 x g 1 h at 4 C; SDS-PAGE, CBB staining, ratio of precipitated to total vinculin by ImageJ.
The target in assay [3] is filamentous actin (F-actin), P68135. In words: actin co-sedimentation assay. The following applies: chain shown with the change.

For “His-tagged vinculin IA mutant (I997A) (from UniProt Q64727 1-1066) (natural protein)”, in assay [1], the percent of vinculin coprecipitated with F-actin was 42%. Take “His-tagged vinculin VA mutant (V1001A) (from UniProt Q64727 1-1066) (natural protein)”: in assay [1], the percent of vinculin coprecipitated with F-actin was determined as 53%. Take “His-tagged WT vinculin (from UniProt Q64727 1-1066) (natural protein)”: the percent of vinculin coprecipitated with F-actin amounted to 40% in assay [2] and 84% in assay [1].

B1: His-tagged WT vinculin, Q64727 D974A; K975A; R976A; R978A (protein)
chain: MPVFHTRTIESILEPVAQQISHLVIMHEEGEVDGKAIPDLTAPVAAVQAAVSNLVRVGKETVQTTEDQILKRDMPPAFIKVENACTKLVQAAQMLQSDPYSVPARDYLIDGSRGILSGTSDLLLTFDEAEVRKIIRVCKGILEYLTVAEVVETMEDLVTYTKNLGPGMTKMAKMIDERQQELTHQEHRVMLVNSMNTVKELLPVLISAMKIFVTTKNSKNQGIEEALKNRNFTVEKMSAEINEIIRVLQLTSWDEDAWASKDTEAMKRALASIDSKLNQAKGWLRDPNASPGDAGEQAIRQILDEAGKVGELCAGKERREILGTCKMLGQMTDQVADLRARGQGASPVAMQKAQQVSQGLDVLTAKVENAARKLEAMTNSKQSIAKKIDAAQNWLADPNGGPEGEEQIRGALAEARKIAELCDDPKERDDILRSLGEIAALTSKLGDLRRQGKGDSPEARALAKQVATALQNLQTKTNRAVANSRPAKAAVHLEGKIEQAQRWIDNPTVDDRGVGQAAIRGLVAEGHRLANVMMGPYRQDLLAKCDRVDQLTAQLADLAARGEGESPQARALASQLQDSLKDLKAQMQEAMTQEVSDVFSDTTTPIKLLAVAATAPPDAPNREEVFDERAANFENHSGRLGATAEKAAAVGTANKSTVEGIQASVKTARELTPQVISAARILLRNPGNQAAYEHFETMKNQWIDNVEKMTGLVDEAIDTKSLLDASEEAIKKDLDKCKVAMANIQPQMLVAGATSIARRANRILLVAKREVENSEDPKFREAVKAASDELSKTISPMVMDAKAVAGNISDPGLQKSFLDSGYRILGAVAKVREAFQPQEPDFPPPPPDLEQLRLTDELAPPKPPLPEGEVPPPRPPPPEEKDEEFPEQKAGEVINQPMMMAARQLHDEARKWSSKGNDIIAAAKRMALLMAEMSRLVRGGSGTKRALIQCAKDIAKASDEVTRLAKEVAKQCTAAAIATNLLQVCERIPTISTQLKILSTVKATMLGRTNISDEESEQATEMLVHNAQNLMQSVKETVREAEAASIKIRTDAGFTLRWVRKTPWYQ
Take B1: the response in assay [3] (2 μM His-tagged vinculin, 25 μM VBS3(talin), parent: est. 41, read off a plot) came out at 59%.

B2: His-tagged WT vinculin, Q64727 I997A; V1001A (protein)
chain: MPVFHTRTIESILEPVAQQISHLVIMHEEGEVDGKAIPDLTAPVAAVQAAVSNLVRVGKETVQTTEDQILKRDMPPAFIKVENACTKLVQAAQMLQSDPYSVPARDYLIDGSRGILSGTSDLLLTFDEAEVRKIIRVCKGILEYLTVAEVVETMEDLVTYTKNLGPGMTKMAKMIDERQQELTHQEHRVMLVNSMNTVKELLPVLISAMKIFVTTKNSKNQGIEEALKNRNFTVEKMSAEINEIIRVLQLTSWDEDAWASKDTEAMKRALASIDSKLNQAKGWLRDPNASPGDAGEQAIRQILDEAGKVGELCAGKERREILGTCKMLGQMTDQVADLRARGQGASPVAMQKAQQVSQGLDVLTAKVENAARKLEAMTNSKQSIAKKIDAAQNWLADPNGGPEGEEQIRGALAEARKIAELCDDPKERDDILRSLGEIAALTSKLGDLRRQGKGDSPEARALAKQVATALQNLQTKTNRAVANSRPAKAAVHLEGKIEQAQRWIDNPTVDDRGVGQAAIRGLVAEGHRLANVMMGPYRQDLLAKCDRVDQLTAQLADLAARGEGESPQARALASQLQDSLKDLKAQMQEAMTQEVSDVFSDTTTPIKLLAVAATAPPDAPNREEVFDERAANFENHSGRLGATAEKAAAVGTANKSTVEGIQASVKTARELTPQVISAARILLRNPGNQAAYEHFETMKNQWIDNVEKMTGLVDEAIDTKSLLDASEEAIKKDLDKCKVAMANIQPQMLVAGATSIARRANRILLVAKREVENSEDPKFREAVKAASDELSKTISPMVMDAKAVAGNISDPGLQKSFLDSGYRILGAVAKVREAFQPQEPDFPPPPPDLEQLRLTDELAPPKPPLPEGEVPPPRPPPPEEKDEEFPEQKAGEVINQPMMMAARQLHDEARKWSSKGNDIIAAAKRMALLMAEMSRLVRGGSGTKRALIQCAKDIAKASDEVTRLAKEVAKQCTDKRIRTNLLQVCERIPTISTQLKALSTAKATMLGRTNISDEESEQATEMLVHNAQNLMQSVKETVREAEAASIKIRTDAGFTLRWVRKTPWYQ
Regarding B2, the response in assay [3] (1 μM His-tagged vinculin, 10 μM GST-VBS(IpaA), parent: est. 84, read off a plot) was determined as 43%.
